According to publication PMC10085679, “Filament assembly underpins the double-stranded DNA specificity of AIM2-like receptors”:

Assays:
IFI16HinAB [1] = molecular target: T1, IFI16HinAB (Homo sapiens, UniProt Q16666-2 159-729); test: competition fluorescence anisotropy; unlabelled competitor against 6 nM 60-bp FAM-dsDNA, 400 nM protein; 160 mM KCl (60 mM KCl for IFI16HinAB); buffer, pH and temperature not given in the available text; conditions: protein: recombinant
AIM2HIN [2] = molecular target: T2, AIM2HIN (Homo sapiens, UniProt O14862 144-343); test: as above; conditions: protein: recombinant
T2 sequence: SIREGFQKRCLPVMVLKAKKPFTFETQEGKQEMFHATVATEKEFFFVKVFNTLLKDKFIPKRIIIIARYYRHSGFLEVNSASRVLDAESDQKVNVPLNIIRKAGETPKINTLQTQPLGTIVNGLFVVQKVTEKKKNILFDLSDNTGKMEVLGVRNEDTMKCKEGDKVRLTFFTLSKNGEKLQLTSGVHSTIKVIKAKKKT

AIM2FL [3] = molecular target: T3, AIM2FL (Homo sapiens, UniProt O14862 1-343); test: fluorescence anisotropy; 160 mM KCl; 60 mM KCl for IFI16HinAB; FAM probe 3-6 nM (FA) or 20 nM (EMSA); binding buffer pH and temperature not in the material; conditions: protein: recombinant
T3 sequence: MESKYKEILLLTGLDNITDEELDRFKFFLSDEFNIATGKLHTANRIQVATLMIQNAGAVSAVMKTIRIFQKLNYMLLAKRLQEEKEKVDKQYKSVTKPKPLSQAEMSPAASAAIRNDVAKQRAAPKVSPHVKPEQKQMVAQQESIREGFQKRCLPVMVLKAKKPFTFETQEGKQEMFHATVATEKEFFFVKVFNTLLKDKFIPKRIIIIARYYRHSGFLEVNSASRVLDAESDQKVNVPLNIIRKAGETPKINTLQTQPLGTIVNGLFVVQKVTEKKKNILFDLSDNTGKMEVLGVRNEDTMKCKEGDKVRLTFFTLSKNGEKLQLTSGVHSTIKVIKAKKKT

IFI16FL [4] = molecular target: T4, IFI16FL (Homo sapiens, UniProt Q16666-2 1-729); test: competition fluorescence anisotropy; unlabelled competitor against 6 nM 24-bp FAM-dsDNA, 500 nM protein; 160 mM KCl (60 mM KCl for IFI16HinAB); buffer, pH and temperature not given in the available text; conditions: protein: recombinant; tags: C-terminal His6
AIM2FL [5] = molecular target: T3, AIM2FL; test: fluorescence anisotropy; 160 mM KCl (60 mM KCl for IFI16HinAB); buffer, pH and temperature not given in the available text; conditions: protein: recombinant
IFI16HinAB [6] = molecular target: T1, IFI16HinAB; test: as above; conditions: protein: recombinant
IFI16FL [7] = molecular target: T4, IFI16FL; test: as above; conditions: protein: recombinant; tags: C-terminal His6
AIM2HIN [8] = molecular target: T2, AIM2HIN; test: as above; conditions: protein: recombinant
IFI16FL [9] = molecular target: T4, IFI16FL; test: competition; last row of Table S10, presumably against 60-bp FAM-dsDNA; 160 mM KCl; 60 mM KCl for IFI16HinAB; FAM probe 3-6 nM (FA) or 20 nM (EMSA); binding buffer pH and temperature not in the material; conditions: protein: recombinant; tags: C-terminal His6
AIM2HIN [10] = molecular target: T2, AIM2HIN; test: competition fluorescence anisotropy; unlabelled competitor against 6 nM 24-bp FAM-dsDNA, 625 nM protein; 160 mM KCl (60 mM KCl for IFI16HinAB); buffer, pH and temperature not given in the available text; conditions: protein: recombinant
AIM2FL [11] = molecular target: T3, AIM2FL; test: competition fluorescence anisotropy; unlabelled competitor against 6 nM 24-bp FAM-dsDNA, 100 nM protein; 160 mM KCl (60 mM KCl for IFI16HinAB); buffer, pH and temperature not given in the available text; conditions: protein: recombinant
IFI16HinAB [12] = molecular target: T1, IFI16HinAB; test: competition fluorescence anisotropy; unlabelled competitor against 6 nM 24-bp FAM-dsDNA, 1000 nM protein; 160 mM KCl (60 mM KCl for IFI16HinAB); buffer, pH and temperature not given in the available text; conditions: protein: recombinant

T4 sequence (Q16666 other isoform, or with tags, fused parts or gaps): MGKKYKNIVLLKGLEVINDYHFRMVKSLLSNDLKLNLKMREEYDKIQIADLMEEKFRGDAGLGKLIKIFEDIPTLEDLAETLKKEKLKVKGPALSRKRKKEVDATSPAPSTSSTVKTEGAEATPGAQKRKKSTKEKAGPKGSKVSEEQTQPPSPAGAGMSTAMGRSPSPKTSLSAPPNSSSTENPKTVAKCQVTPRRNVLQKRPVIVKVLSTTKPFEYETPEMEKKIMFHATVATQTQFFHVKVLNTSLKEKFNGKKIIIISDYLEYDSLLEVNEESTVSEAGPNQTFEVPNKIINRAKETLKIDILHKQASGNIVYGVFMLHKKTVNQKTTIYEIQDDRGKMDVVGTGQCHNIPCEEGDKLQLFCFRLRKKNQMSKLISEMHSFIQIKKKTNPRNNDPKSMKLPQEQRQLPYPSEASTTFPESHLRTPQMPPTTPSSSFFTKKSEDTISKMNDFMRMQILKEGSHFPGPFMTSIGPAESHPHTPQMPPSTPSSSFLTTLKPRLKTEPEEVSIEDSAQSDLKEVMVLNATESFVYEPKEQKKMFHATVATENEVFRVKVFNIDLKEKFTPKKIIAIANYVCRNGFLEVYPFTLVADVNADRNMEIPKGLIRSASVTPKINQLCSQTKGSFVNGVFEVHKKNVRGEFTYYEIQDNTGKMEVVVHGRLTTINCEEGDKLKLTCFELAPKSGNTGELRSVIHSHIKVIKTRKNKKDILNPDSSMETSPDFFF
T1 sequence (Q16666 other isoform, or with tags, fused parts or gaps): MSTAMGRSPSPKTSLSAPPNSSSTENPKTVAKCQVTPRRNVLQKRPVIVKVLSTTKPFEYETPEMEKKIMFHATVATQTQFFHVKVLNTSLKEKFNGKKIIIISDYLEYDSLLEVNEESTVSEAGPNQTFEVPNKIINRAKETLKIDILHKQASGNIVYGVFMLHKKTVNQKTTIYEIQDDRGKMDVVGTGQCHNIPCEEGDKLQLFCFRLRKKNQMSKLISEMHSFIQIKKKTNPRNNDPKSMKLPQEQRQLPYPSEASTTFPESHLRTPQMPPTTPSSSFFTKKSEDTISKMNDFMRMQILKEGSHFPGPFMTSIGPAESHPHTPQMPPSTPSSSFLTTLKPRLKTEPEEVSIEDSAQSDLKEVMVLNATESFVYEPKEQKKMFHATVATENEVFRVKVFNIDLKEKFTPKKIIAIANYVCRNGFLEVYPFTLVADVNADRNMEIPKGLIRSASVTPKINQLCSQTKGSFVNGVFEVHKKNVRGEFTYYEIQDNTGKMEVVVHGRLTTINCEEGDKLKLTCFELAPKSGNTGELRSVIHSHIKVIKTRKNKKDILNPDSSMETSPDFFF

B1: 60-bp DNA:RNA hybrid (DNA:RNA)
DNA: TAAGACACGATGCGATAAAATCTGTTTGTAAAATTTATTAAGGGTACAAATTGCCCTAGC
RNA: GCUAGGGCAAUUUGUACCCUUAAUAAAUUUUACAAACAGAUUUUAUCGCAUCGUGUCUUA
IFI16HinAB [1]
  IC50: 623 ± 106 nM
AIM2HIN [2]
  IC50: 350 ± 44 nM
AIM2FL [3]
  Kd: 40 ± 10 nM
IFI16FL [4]
  IC50: 239 ± 31.9 nM
AIM2FL [5]
  Kd: 40 ± 10 nM
IFI16HinAB [6]
  Kd: 60 ± 10 nM
IFI16FL [7]
  Kd: 35 ± 15 nM
AIM2HIN [8]
  Kd: 800 ± 100 nM
IFI16FL [9]
  IC50: 975 ± 48.1 nM
AIM2HIN [10]
  IC50: 100 ± 9 nM
AIM2FL [11]
  IC50: 19.6 ± 0.44 nM
IFI16HinAB [12]
  IC50: 663 ± 64.6 nM
